Assay results reported in a protein production outcome set (Wang et al. 2014).

Test: label from the status in PepcDB records
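Also: failed if final PepcDB status was selected cloned or expressed and not failed if soluble or beyond.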

Sequence | protein production
METLSDVFATFSQRGDTTAFVHRTGVRRYVFTYLDLHALSLRMNRWLADQGVGEGDRVVLWGPNSPWWAVAFWGIVTRGAVAVPVDFMSGAERAEIIAGLTDAKLVIQSRDKLDRLTGRPSVLLEELGFLLEAVEPLATTHRPAPDDMAELIYTSGTTGNPKGVILTHRNLVANILQVNRHIPVVTPDFSFLSLLPLSHMFEQMGGFFTPLYRGAAIVYIRTLKPSAIMEALGEEDIYAIIAVPRLLQLLKGSVERELEAKGLGSIFRWLLKVGERMSRGGRSVLFRPIQRKFGRNFALFVSGGAPLDPEVFRFWNGLGFRVVEGYGLTECSPVLTANTMERQVMGSVGTPLDGVELRLEEGEILARGDNIFPGYFRNEEATRGAFVDGWFRTGDLGELDPDGWLRIKGRSKELIVTGAGVNVYPDEIEAILNRTQGVREGCVIGLDRGKGEEVHGVLILDGSGRPTEEIVNEVNAKFDELHRITSFSVWPEAEFPKTTTLKIRKFQVKERIEQGGGALGDGRGADRLTALVATITGSPLEQVTEGALLVNDLGLTSIARLELVNALEMEFRLDLEDSVIGPQTRVADLREIVSRREKVHIREHFRIWAMGGVALAVRRLLDTVLHGPLLRAFVTLKSLGIENLEAADGPVMFVSNHLSYLDQPAIMCVLPDAWRYNTATAAWEEFFFRNFKNLPQRLWKRFTYEYASVAFTVFPLPQSRGFRGALHFMGTLADQGMNILLFPEGERSRDGRLLPFQQGLGVMIRELGVPVVPVRIRGLEKVLPRGASWPQKGEVSITFGKPIHFRGESPTEIVDRARRAVEDLLEHHHHHH | failed
MSMIRLTVEETNLLSIYNEGGKRALIENVNAALPYMDADMRELAKRTLSKVDALTEAEFAELPIYAADEV | failed
FIQIKPGYDYPIISALRAIISGNADAVPDEVGGVSKEKLVELAETMKNAKYGAVLYGLGVTQSRGRDRNVENAVKLIQLLNRHTRWVIWPMRGHYNVVGAGEVPAWEVGYQYAIDFSRGYPR | failed
MSKIADDQNFNDEEENFAKLFKKELEKEETLEKGTIKEGLVVSINENDGYAMVSVGGKTEGRLALNEITDEKGQLLYQKNDPIIVHVSEKGEHPSVSYKKAISQQKIQAKIEELGENYENAIIEGKIVGKNKGGYIVESQGVEYFLSRSHSSLKNDANHIGKRVKACIIRVDKENHSINISRKRFFEVNDKRQLEVSKELLEATEPVLGVVRQITPFGIFVEAKGIEGLVHYSEISHKGPVNPEKYYKEGDEVYVKAIAYDAEKRRLSLSIKATIEDPWEEIQDKLKPGYAIKVVVSNIEHYGVFVDIGNDIEGFLHVSEISWDKNVSHPNNYLSVGQEIDVKIIDIDPKNRRLRVSLKQLTNRPFDVFESKHQVGDVLEGKVATLTDFGAFLNLGGVDGLLHNHDAFWDKDKKCKDHYKIGDVIKVKILKINKKDKKISLSAKHLVTSPTEEFAQKHKTDSVIQGKVVSIKDFGVFINADGIDVLIKNEDLNPLKKDEIKIGQEITCVVVAIEKSNNKVRASVHRLERKKEKEELQAFNTSDDKMTLGDILKEKL | failed
MVTLEYNANSKLITASDAVVALSTETNIDQINVLTTSLIGETNPNFTPQPNEALSKMIKGLFESGMKNLQQKKLNEALKNVSLAIEMAQRKRAPWEAFAIQLPELHFMLRSKIDLCLILGKHLEALQDLDFLLGTGLIQPDVFVRKADCLLKLRQWEEARATCERGLALAPEDMKLRALLIETARNLAEYNGE | failed
MEEAKGPVKHVLLASFKDGVSPEKIEELIKGYANLVNLIEPMKAFHWGKDVSIENLHQGYTHIFESTFESKEAVAEYIAHPAHVEFATIFLGSLDKVLVIDYKPTSVSL | not failed
MSLEKWRIYEELTNAVREFESINPVRLIPEVGTNFVYSLPLPYARSTKDVAGVKGRIVKYGNSVKAVGPVEFGASDHLARAVLTYMRFYPEYRSAINIRYSREIIEEIIEIAQERGFKVSFYDRREEPEEIKAKEGATIPWGIETAIKRIKERPDIIYHLGDVGKEPMILVFGRNPREVLEKIKMLIEGHHHHHH | not failed
DYSQKLQNLISEQLVGCGFNEILNNSLTAASYYEGSETYKNENLVYLMNPLSNDLNVMRQTLLFGGLESIQHNANRKNADLKFFEFGNCYFYNAEKKNPEKVLAAYAEEYHLGLWVTGKRVSNSWAHPDENSSVYELKAYVLNIFTRLGLNFGNVVFGNLTNDIYSTAISVHTRGGKLLATFGIISKKIQKAFDIDNEVYYAEINWKELM | not failed
MDKLDANVSSEEGFGSVEKVVLLTFLSTVILMAILGNLLVMVAVCWDRQLRKIKTNYFIVSLAFADLLVSVLVMPFGAIELVQDIWIYGEVFCLVRTSLDVLLTTASIFHLCCISLDRYYAICCQPLVYRNKMTPLRIALMLGGCWVIPTFISFLPIMQGWNNIGIIDLIEKRKFNQNSNSTYCVFMVNKPYAITCSVVAFYIPFLLMVLAYYRIYVTAKEHAHQIQMLQRAGASSESRPQSADQHSTHRMRTETKAAKTLCIIMGCFCLCWAPFFVTNIVDPFIDYTVPGQVWTAFLWLGYINSGLNPFLYAFLNKSFRRAFLIILCCDDERYRRPSILGQTVPCSTTTINGSTHVLSGCSPVSSFLLLFCNRPVPV | failed
MAAPRVIMAAPRVIMAAITGVTPEVVNRTRPERRDLADMRAAMKTGFTAVASVIGVGVAGLAYGVIEAHRFVVRHVEVPVLKPGSSPLRILHMSDLHLLARQETKRRFIRQLDALNPDLVINTGDNFCSADSLQPLLDDMSGLLQRPGTFVFGSNDYLVPKFKNPFSYLLWGRSQQATEPVPELPHEELRQAFTSAGWLDLNDKSETLEVAGHRLTLRGTDDAHHDRDHYEEVAGPPDGEADLNIGVTHAPYLKILDAMVSDGMDIVFAGHTHGGQVCLPFTGAIITNCDLDTERAKGLSQHGRGGHTGWLHVSAGLGCSPFAPYRTFCRPEATLLTLVPRP | failed
MLINLGQRLENLRTLVGFLKAARAESLDRVIAIADSLNKTEIAAQSRRWMLSHPAVAQLAAENYAPARPALEALNQLPTGTLGQAYASLLLGQNLSPDDLQPAKPATNADEYIVERLRVTHDIAHVITGFGTDPASELGLQAFNLRQNRTPLAVLLIAGGLLKTIKEGRDPAPILRQVARGIELADKAELLVAQRWEDHWDWPLEQWRQVLNLPV | failed
MKKVTIVGGNGTVGRVLAGGLAGEGYEVTVLDLKEPDDKQAVRFIRVDATDYNEVVKSIPAQTNALINLLAVKPSGDLLDRQEFAKMTDIFFKATYTILRAAAELGVPKVVFASSNHVTDVYEKGGDSLLGRQINTNDYPQSKSLYGLLKLASENLGYLFSHQLDAKVSVINLRIGTAAENELETLHAKPRSKKTLLSHPDLIGIFKAAIKSGKTYGTYYAVSDNKGRPWSIDSAIRELGYRPQVSASDILDED | failed
MWHSIEQAISVETGKSFYISEKKEISTRPASSSSFTCSYDNKEPPPNLSFKITDGHRSYFLKINNKDYLENFQAEAYSLKQLNSLANIASPNVTAIGTSLDKSFLVLDYIDFSKAKPMLWYQLGQQLAQMHYENRHGQFGWQHDNFIGSTIQPNHWSSNWTTFFSDQRIAWQLQLLSERSIMLGNIEHITQVCHDALLHHQVSPCLVHGDLWQGNTGFSGEKAMIFDPACYYGDREVDIAMTELFGHFPDDFYHGYQAEYPLDDGYEQRKLVYNFYHILNHANIFGGIYIDQAKATLSRIMSLPLHLEHHHHHH | failed
PQAMIIDVVADVVCPWCYLGWRRLKSAIALRPDLKAQLIWRPYQLDPTLPEDGVDRKAYMAQKFKDPEKLKAVHTALVEGGAEEGIVFNFEAIALSPNTNAAHRLIRWALTAGVQDHVVEALFKAYFEQGLDIGDPIVLGDIAEAAGMERLVVLQLLSEGADKEAVAREHAMAVQGGVTGVPFAIFAGKVAVVGAESPERIAQAIDQALAA | failed
MPIGFLRSLTARHRNPVSNRRLARVLCFVAGAANAGGFLAVQQYTSHMSGIVSAIADDLVLQRYGLVVHGIGALASFLAGAGTTAILVNWARRARLRSEYAIPLLVEATLLLCFGLLGSHLNDMDWLFVPATVMLLCFMMGLQNALITKLSNAEIRTTHVTGMVTDIGIELGKLFYWNAAVRPNSRPVMADRHKLRLLTVLVGMFLVGGIVGAQAFSTLGYAATLPLAALLLIVAIIPVADDLLTRLLLRVHRADSARRARRWGARGR | failed
